The results in this text go back to the RNAGym collection of RNA variant scans (doi:10.7554/elife.90254).

The chains are these.
B1: LINE1-full (parent)
chain: UACGUAGGUGGUUUUCCCCUGAUAGUGCUAAGGGGGCCUGGAAGUUUGGACUGGGCAGAGCUCAACACAGCGUGGCAAAGUGGCUGUGGCUAGACUGCCUCUCUGGAUUCCUCGUCACUCAGCAGGGCAUCUCUGAGAGAAAUGCC

This data set covers variants of B1. Put plainly: self-cleavage, relative activity (ratio to wild type); higher = more cleavage; in vitro, sequencing; the parent is a self-cleaving ribozyme.
In the case of UACGUAGGUGGUUUUCCCCUGAUAGUGCUAAGGGGGGCUGGAAGUUUGGACUGGGCAGAGCUCAACACAGCGUGGCAAAGUGGCUGUGGCUAGACUGCCUCUCUGGAUUCCUCGUCACUCAGCAGGGCAUCUCUGAGAGAAAUGCC, the self-cleavage is 1.13.

Take UACGUAGGUGGUUUUCCCCUGAUAGUGCUAAGGGGGACUGGAAGUUUGGACUGGGCAGAGCUCAACACAGCGUGGCAAAGUGGCUGUGGCUAGACUGCCUCUCUGGAUUCCUCGUCACUCAGCAGGGCAUCUCUGAGAGAAAUGCC: the self-cleavage turned out to be 1.04.

Take UACGUAGGUGGUUUUCCCCUGAUAGUGCUAAGGGGGGCUGGAAGUUUGGACCGGGCAGAGCUCAACACAGCGUGGCAAAGUGGCUGUGGCUAGACUGCCUCUCUGGAUUCCUCGUCACUCAGCAGGGCAUCUCUGAGAGAAAUGCC: the self-cleavage came to 0.75.

As to UACGUAGGUGGUUUUCCCCUGAUAGUGCUAAGGGGGGCUGGAAGUUAGGACUGGGCAGAGCUCAACACAGCGUGGCAAAGUGGCUGUGGCUAGACUGCCUCUCUGGAUUCCUCGUCACUCAGCAGGGCAUCUCUGAGAGAAAUGCC, the self-cleavage turned out to be 1.11.

As for UACGUAGGUGGUUUUCCCCUGAUAGUGCUAAGGGGGGCUGGAAGUUCGGACUGGGCAGAGCUCAACACAGCGUGGCAAAGUGGCUGUGGCUAGACUGCCUCUCUGGAUUCCUCGUCACUCAGCAGGGCAUCUCUGAGAGAAAUGCC, the self-cleavage came out at 0.71.

In the case of UACGUAGGUGGUUUUCCCCUGAUAGUGCUAAGGGGGGCUGGAAGUUUGGACUGGGCAGAGCUCAACACAGCGUGGCAAAGUGGCUGUGGCUAGACUGCCUCUCUGGAUUCCUCGUCACUCAGCAGGGCAGCUCUGAGAGAAAUGCC, the self-cleavage turned out to be 0.68.

For UACGUAGGUGGUUUUCCCCUGAUAGUGCUAAGGGGGGCUGGAAGUUUGGACUGGGCAGAGCUCAACACAGCGUGGCAAAGUGGCUGUGGCUAGACUGCCUCACUGGAUUCCUCGUCACUCAGCAGGGCAUCUCUGAGAGAAAUGCC, the self-cleavage was determined as 0.9.

Take UACGUAGGUGGUUUUCCCCUGAUAGUGCUAAGGGGGGCUGGAAGUUUGGACUGGGCAGAGCUCAACACAGCGUGGCAAAGUGGCUGUGGCUAGACUGCCUCCCUGGAUUCCUCGUCACUCAGCAGGGCAUCUCUGAGAGAAAUGCC: the self-cleavage was 1.19.

UACGUAGGUGGUUUUCCCCUGAUAGUGCUAAGGGGGACUGGAAGUUUGGACUGGGCAGAGCUCAACACAGCGUGGCAAAGUGGCUGUGGCUAGACUGCCUCUCUGGACUCCUCGUCACUCAGCAGGGCAUCUCUGAGAGAAAUGCC: the self-cleavage was found to be 1.51.

As to UACGUAGGUGGUUUUCCCCUGAUAGUGCUAAGGGGGGCUGGAAGUUUGGACUGGGCAGAGCUCAACACAGCGUGGCAAAGUGGCUGUGGCUAGACUGCCUCUCUGGAUUCCCCGUCACUCAGCAGGGCAUCUCUGAGAGAAAUGCC, the self-cleavage is 0.28.

For the variant UACGUAGGUGGUUUUCCCCUGAUAGUGCUAAGGGGGGCUGGAAGUUUGGACUGGGCAGAGCUCAACACAGCGUGGCAAAGUGGCUGCGGCUAGACUGCCUCUCUGGAUUCCUCGUCACUCAGCAGGGCAUCUCUGAGAGAAAUGCC, the self-cleavage was determined as 0.2.

Regarding UACGUAGGUGGUUUUCCCCUGAUAGUGCUAAGGGGGACUGGAAGUUUGGACUGGGCAGAGCUCAACACAGCGUGGCAAAGUGGCUGUGGCUAGACUGCCUCUCUGGAUUCCUCGUCACUCAGCAGGGCGUCUCUGAGAGAAAUGCC, the self-cleavage worked out at 1.22.

Take UACGUAGGUGGUUUUCCCCUGAUAGUGCUAAGGGGGGCUGGAAGUUUGGACUGGGCAGAGCUCAACACAGCGUGGCAAGGUGGCUGUGGCUAGACUGCCUCUCUGGAUUCCUCGUCACUCAGCAGGGCAUCUCUGAGAGAAAUGCC: the self-cleavage stood at 0.85.

For the variant UACGUAGGUGGUUUUCCCCUGAUAGUGCUAAGGGGGACUGGAAGUUUGGACUGGGCAGAGCUCUACACAGCGUGGCAAAGUGGCUGUGGCUAGACUGCCUCUCUGGAUUCCUCGUCACUCAGCAGGGCAUCUCUGAGAGAAAUGCC, the self-cleavage came to 0.35.

Take UACGUAGGUGGUUUUCCCCUGAUAGUGCUAAGGGGGGCUGGAAGUUUGGACUGGGCAGAGCUCAACACAGCGUGGCAAAGUGGCUGUGGCUAGACGGCCUCUCUGGAUUCCUCGUCACUCAGCAGGGCAUCUCUGAGAGAAAUGCC: the self-cleavage worked out at 0.07.

Take UACGUAGGUGGUUUUCCCCUGAUAGUGCUAAGGGGGGCUGGAAGUUUGGACUGGGCAGAGCUCAGCACAGCGUGGCAAAGUGGCUGUGGCUAGACUGCCUCUCUGGAUUCCUCGUCACUCAGCAGGGCAUCUCUGAGAGAAAUGCC: the self-cleavage came to 0.

On to UACGUAGGUGGUUUUCCCCUGAUAGUGCUAAGGGGGACUGGAAGUUUGGACUGGGCAGAGCUCAACACAGCGUGGCAAAGUGGCUGUGGCUAGACUGCCUCUCUGGAUUCCUCGUCACUCAGCAGGGCAUCUCUGAGAGAAACGCC, for which the self-cleavage is 0.75.

On to UACGUAGGUGGUUUUCCCCUGAUAGUGCUAAGGGGGGCUGGAAGUUUGGACUGGGCAGUGCUCAACACAGCGUGGCAAAGUGGCUGUGGCUAGACUGCCUCUCUGGAUUCCUCGUCACUCAGCAGGGCAUCUCUGAGAGAAAUGCC, for which the self-cleavage was found to be 0.84.

Take UACGUAGGUGGUUUUCCCCUGAUAGUGCUAAGGGGGGCUGGAAGUUUGGACUGGGCAGGGCUCAACACAGCGUGGCAAAGUGGCUGUGGCUAGACUGCCUCUCUGGAUUCCUCGUCACUCAGCAGGGCAUCUCUGAGAGAAAUGCC: the self-cleavage worked out at 0.07.

For the variant UACGUAGGUGGUUUUCCCCUGAUAGUGCUAAGGGGGGCUGGAAGUUUGGACUGGGCAGAGCCCAACACAGCGUGGCAAAGUGGCUGUGGCUAGACUGCCUCUCUGGAUUCCUCGUCACUCAGCAGGGCAUCUCUGAGAGAAAUGCC, the self-cleavage was found to be 0.12.

Consider UACGUAGGUGGUUUUCCCCUGAUAGUGCUAAGGGGGACUGGAAGUUUGGACUGGGCAGAGCUCAACACAGCGUGGCAAAGUGGCUGUGGCUCGACUGCCUCUCUGGAUUCCUCGUCACUCAGCAGGGCAUCUCUGAGAGAAAUGCC, for which the self-cleavage was determined as 0.2.

As for UACGUAGGUGGUUUUCCCCUGAUAGUGCUAAGGGGGGCUGGAAGUUUGGACUGGGCAGAGCUCAACACAGCGUGGCAAAGUGGCUGUGGCUAGACUGCCUCUCUGGAUUCCUCGUCACUCAGCAGGGCAUCUCUGAGAGAAACGCC, the self-cleavage was 1.38.

Turning to UACGUAGGUGGUUUUCCCCUGAUAGUGCUAAGGGGGACUGGAAGUUUGGACUGGGCAGAGCUCAACACAGCGUGGCAAAGUGGCUGUGGCUAGACUGCCUCUCUGGAUUCCUCGUCACUCAGCAGGGCACCUCUGAGAGAAAUGCC, the self-cleavage was 1.39.

As for UACGUAGGUGGUUUUCCCCUGAUAGUGCUAAGGGGGGCUGGAAGUUUGGACUGGGCAGAGCUCAACACAGCGUGGCAAAGUGGCUGUGGCUAGACUGCCUCUCUGGAUUCCUCGUCACUCAGCAGGGCAUCUCUGAGAGAAGUGCC, the self-cleavage turned out to be 1.25.

UACGUAGGUGGUUUUCCCCUGAUAGUGCUAAGGGGGGCUGGAAGUUUGGACUGGGCAGAACUCAACACAGCGUGGCAAAGUGGCUGUGGCUAGACUGCCUCUCUGGAUUCCUCGUCACUCAGCAGGGCAUCUCUGAGAGAAAUGCC: the self-cleavage stood at 0.06.

In the case of UACGUAGGUGGUUUUCCCCUGAUAGUGCUAAGGGGGACUGGAAGUUUGGACUGGGCAGAGCUCAACACAGCGUGGCAAAGUGGCUGUGGCUAGUCUGCCUCUCUGGAUUCCUCGUCACUCAGCAGGGCAUCUCUGAGAGAAAUGCC, the self-cleavage amounted to 0.23.

UACGUAGGUGGUUUUCCCCUGAUAGUGCUAAGGGGGACUGGAAGUUUGGACUGGGCAGAGCUCAACACAGCGUGGCAAAGUGGCUGUGGCUAGCCUGCCUCUCUGGAUUCCUCGUCACUCAGCAGGGCAUCUCUGAGAGAAAUGCC: the self-cleavage worked out at 0.06.

With UACGUAGGUGGUUUUCCCCUGAUAGUGCUAAGGGGGGCUGGAAGUUUGGACUGGGCAGAGCUCAACUCAGCGUGGCAAAGUGGCUGUGGCUAGACUGCCUCUCUGGAUUCCUCGUCACUCAGCAGGGCAUCUCUGAGAGAAAUGCC, the self-cleavage came out at 0.12.

As for UACGUAGGUGGUUUUCCCCUGAUAGUGCUAAGGGGGACUGGAAGUUUGGACUGGGCAGAGCUCAACACAGCGUGGCAAAGUGGCUGUGGCUAGAAUGCCUCUCUGGAUUCCUCGUCACUCAGCAGGGCAUCUCUGAGAGAAAUGCC, the self-cleavage stood at 0.01.

For the variant UACGUAGGUGGUUUUCCCCUGAUAGUGCUAAGGGGGACUGGAAGUUUGGACUGGGCAGAGCUCAACACAGCGUGGCAAAGUGGCUGUGGCUAGACUGCCCCUCUGGAUUCCUCGUCACUCAGCAGGGCAUCUCUGAGAGAAAUGCC, the self-cleavage came to 1.56.

Regarding UACGUAGGUGGUUUUCCCCUGAUAGUGCUAAGGGGGACUGGAAGUUUGGACUGGGCAGAGCUCAACACAGCGUGGCAAAGUGGCUGUGGCUAGACUGCCACUCUGGAUUCCUCGUCACUCAGCAGGGCAUCUCUGAGAGAAAUGCC, the self-cleavage turned out to be 0.93.

Turning to UACGUAGGUGGUUUUCCCCUGAUAGUGCUAAGGGGGACUGGAAGUUUGGACUGGGCAGAGCUCAACACAGCGUGGCAAAGUGGCUGUGGCUAGACUGCCUCUCUGGAUUCCUCGUCACUCAGCAGGGCAUCUCUGAGAGAAGUGCC, the self-cleavage was 1.24.

For the variant UACGUAGGUGGUUUUCCCCUGAUAGUGCUAAGGGGGACUGGAAGUUUGGACUGGGCAGAGCUCAACACAGCGUGGCAAAGUGGCUGUGGCUAGACCGCCUCUCUGGAUUCCUCGUCACUCAGCAGGGCAUCUCUGAGAGAAAUGCC, the self-cleavage was 0.08.

Regarding UACGUAGGUGGUUUUCCCCUGAUAGUGCUAAGGGGGACUGGAAGUUAGGACUGGGCAGAGCUCAACACAGCGUGGCAAAGUGGCUGUGGCUAGACUGCCUCUCUGGAUUCCUCGUCACUCAGCAGGGCAUCUCUGAGAGAAAUGCC, the self-cleavage is 1.12.

Consider UACGUAGGUGGUUUUCCCCUGAUAGUGCUAAGGGGGGCUGGAAGUUUGGACUGGGCAGAGCUCAACACAGCGUGGCAAAGUGGCUGUGGCUAGGCUGCCUCUCUGGAUUCCUCGUCACUCAGCAGGGCAUCUCUGAGAGAAAUGCC, for which the self-cleavage stood at 0.32.

UACGUAGGUGGUUUUCCCCUGAUAGUGCUAAGGGGGACUGGAAGUUUGGACUGGGCAGAGCUCAACACAGCGUGGCAAAGUGGCUGUGGUUAGACUGCCUCUCUGGAUUCCUCGUCACUCAGCAGGGCAUCUCUGAGAGAAAUGCC: the self-cleavage was found to be 0.04.

For the variant UACGUAGGUGGUUUUCCCCUGAUAGUGCUAAGGGGGGCUGGAAGUUUGGACUGGGCAGAGCUCAACACAGCGUGGCAAAGUGGCUGUGGCUAGACUGCCUCUCUGGAUUCCUCGUCACCCAGCAGGGCAUCUCUGAGAGAAAUGCC, the self-cleavage was 1.46.

For the variant UACGUAGGUGGUUUUCCCCUGAUAGUGCUAAGGGGGGCUGGAAGUUUGGACUGGGCAGAGCUCAACACAGCGUGGCAAAGUGGCUGUGGCUAGACUGCCUCUCUGGAUUCCUCGUCACUCAGCAGGGCAUCUCUGAGGGAAAUGCC, the self-cleavage was 0.8.

On to UACGUAGGUGGUUUUCCCCUGAUAGUGCUAAGGGGGGCUGGAAGAUUGGACUGGGCAGAGCUCAACACAGCGUGGCAAAGUGGCUGUGGCUAGACUGCCUCUCUGGAUUCCUCGUCACUCAGCAGGGCAUCUCUGAGAGAAAUGCC, for which the self-cleavage turned out to be 0.85.
